Experimental data reported in PMC12472674 (Nanomaterials, 2025).

Assays:
[1] = healthy subjects, SC injection; cited from earlier work
Text: SMG is a 31-amino acid peptide with a molecular weight of 4113.58 Da, structurally derived from native GLP-1 by substitutions at positions 8 (alanine to α-aminoisobutyric acid) and 34 (lysine to arginine), and acylation of the lysine residue at position 26 with a C18 fatty diacid chain. These modifications enhance albu ...

[2] = Solubility of SMG in release medium; assay type: physicochemical
[3] = Octanol–water partition coefficient (logP), shake-flask method; assay type: physicochemical; conditions: mutually saturated n-octanol/distilled water, 10 mg freeze-dried complex in 10 mL of each phase, stirred 400 rpm 24 h, 25 °C, HPLC-UV 230 nm, SMG 5.36 mg/mL, in the presence of Zn 0.5 mg/mL (Figure 2a), mean, n = 3
Method: The prepared SMG–PS–Zn complex suspensions were stored at −80 °C for 24 h, then freeze-dried using a lyophilizer (TFD 8501, Ilshinbiobase Co. Ltd., Dongducheon-si, Republic of Korea) at −80 °C and under a vacuum of <10 mTorr for 24 h to obtain dried samples. Then, the octanol–water partition coefficient (logP) was determined using the classical shake-flask method. Equal volumes of n-octanol and distilled water were mutually saturated by vigorous mixing and phase separation. Ten milligrams of freeze-dried complexes were placed in a 20 mL scintillation vial, followed by the addition of 10 mL each of the pre-saturated octanol and water phases. The vial was sealed and stirred at 400 rpm for 24 h to reach equilibrium. After incubation, the mixture was centrifuged at 13,000 rpm to separate the phases. The octanol phase was diluted 10-fold with methanol, and the aqueous phase was diluted 10-fold with the mobile phase. Drug concentrations in both phases were quantified using high-performance liquid chromatography (HPLC) analysis, and logP was calculated as the logarithm of the ratio of drug concentration in octanol to that in water.
The concentration of SMG in the complex suspension was quantified by reversed phase-HPLC, with minor modifications to previously reported methods. […] The limits of detection and quantification were 0.523 μg/mL and 1.569 μg/mL, respectively.

Semaglutide [SMG]
Elimination half-life [1]: approximately 7 days | Solubility in PBS (pH 7.4) release medium [2]: 26.8 mg/mL | logP (octanol/distilled water) [3]: approximately −4.7
